From a protein production outcome set (Wang et al. 2014)

Assay: label from the status in PepcDB records

| Sequence | protein production |
| --- | --- |
| MFSSFSSRRRFRDLSDAEILALAISSEEDDARIYRSYADRLRAPYPGTAALFEAMAEEEDSHRRRLIGTFRDRFGETIPLIRREHVEGYPSRKPVWLLETLPLERVRREAWEMENAARSFYETAARHVTDASTRKLLGDLAAAEAAHEHRAERLAEEHLTDEATAAEDETARRQFILTWVQPGLAGLMDGSVSTLAPIFATAFATQDPATTFQVALAASVGAGISMGFTEAAHDDGVLSGRGAPWKRGLASGVMTTAGGLGHALPYLIPDFAWATGIAIAVVFFELWAIAWIQNRYMETPFLRAALQVVLGGGLVLAAGILIGFG | failed |
| MHLGSTFYDETELRSLPFRHLGANVKIKRTAGLFFVENISIMDDARIDDFTIIVASREHVEIGCNVHIASQCYISGSDGFVMEDFSGLAPGVKIYTSSDDYTGEKMTNPTLPRHLIGGPAGKVVLRKHVIIGSNSVVLPKVTIEEGSSVGSLSLVNKSLPAWGVYAGIPVRRLRDRSQNILILEKELGASRA | failed |
| MSSPVISPETKTGKKILLAAPRGYCAGVDRAVETVERALEEYGAPIYVRKEIVHNRYVVDTLAEKGAIFVNEASEAPEGANMVFSAHGVSPMVHEEAAAKNIKAIDAACPLVTKVHKEVQRFDKQGFHILFIGHEGHEEVEGTMGHSVEKTHLVDGVAGIATLPEFLNDEPNLIWLSQTTLSVDETMEIVRELKVKFPQLQDPPSDDICYATQNRQVAVKAIAERCELMIVVGSRNSSNSVRLVEVAKQNGADNAYLVDYAREIDPAWFEGVETIGISSGASVPEILVQGVIERLAEFGYDDVEEVTSAAEKIVFALPRVLRHKN | not failed |
| MEGLEAYDYHLPPEQIAQEGVEPRDMARLMVVYREGPFRVAHKRVRDLPEFLRPGDVLVFNESKVIPARLLARKPTGGKVEILLVRERSPGLWEALLGPARKAPPGTRLLLLSPKDLAPVPGLQAEVVAVEEDGVRLLRFQGDLVAHLEEVGEVPLPPYIKAKIPMERYQTVYARRPGSVAAPTAGLHFTPELLERLREMGVELRFLTLHVGPGTFRPVKGDPEKHEMHAEPYAIPEEVAEAVNRAKAEGRRVVAVGTTVVRALESAYREGVGVVAGEGETRLFIRPPYTFKVVDALFTNFHLPRSTLLMLVAAFLGRERTLEAYRLAVAEGYRFYSLGDAMLIL | not failed |
| SGCGGSRADAIEPRYYESWTRETESTWLTYTDSDAPPSAAAPDSGPEAGGLHSGMLEDGLPSNGVPRSTAPGGIPNPEKKTNCETQCPNPQSLSSGPLTQKQNGLQTTEAKRDAKRMPAKEVTINVTDSIQQMDRSRRITKNCVN | failed |
| MPSPSGGWGCGGTWARGVDGARLFSIHHQAVRPNLSTISPPKEPPMIEVRHLCKSFARKPAVQDISFSIPAGEIVGYLGPNGAGKSTTIKVLTGLLVPDSGEVRVGGLVPWKQRRQHVARLGAVFGQRTTLWWDLPVRESLELLRHVYRVPAARFAENLAGFTELLELGPFLNTPARALSLGQRMRADLAAALLHDPELLFLDEPTVGLDVVAKERIREFVKAVNAERGVTVLLTTHDLGDVERLARRVMMIDTGRLLFDGPLAELQARYGGERELWVEFEKAPAQPALPGLTLLGQDGPRVRYGFSGAAAAPIAQVTALAPVRDLAVKEPEVEATIRRIYEGNLLGSRSVREGLEHHHHHH | failed |
| MSRRGLLLMGQCMPCIKQNASKIRIRRMELDKNLNMYFKKDEFYFAHDPQKVCKTGDVVLIRELPERLTRLITHNVEKVVYPLGDITDPLTGKKVVVGNYREDIEMANQLFGKSEKAFDYEKAPPRGRLEGTKDFTHGETYIKYHEDGKDQPFAV | failed |
| MGHHHHHHSHMAFVTRQFMRSVSSSSTASASAKKIIVKHVTVIGGGLMGAGIAQVAAATGHTVVLVDQTEDILAKSKKGIEESLRKVAKKKFAENPKAGDEFVEKTLSTIATSTDAASVVHSTDLVVEAIVENLKVKNELFKRLDKFAAEHTIFASNTSSLQITSIANATTRQDRFAGLHFFNPVPVMKLVEVIKTPMTSQKTFESLVDFSKALGKHPVSCKDTPGFIVNRLLVPYLMEAIRLYERGDASKEDIDTAMKLGAGYPMGPFELLDYVGLDTTKFIVDGWHEMDAENPLHQPSPSLNKLVAENKFGKKTGEGFYKYK | not failed |
| MGTFIEPSKVTLKDYLNHWLEIKSMSIEKSTFAGYKAFINQHVIPSIGMVTLHKLNVIHIQKCYKTAIDKGIANNSILLMHRILKSALNLAVKQNIISRNPADFAEIPLEHHHHHH | failed |
| MDFFHHQDTARQRTGLLVMLFTLAVLAITGLVSVISIGIYFYFTGEPFTTQSIISYCLLSFVGVLLVVSISSFIRLSELNANGGRGVAESIGGKLISTDTSNAKHRQLLNVVEEMSIASGIPVPPVYVMAEEHGINAFAAGMSIDDAVIGVTQGALDAFSRDELQGVIAHEFSHILNGDMRLNTRLIGALFGITCIAHFGHLILDNSNSTRHVSRSSSDSNKGFAVIILIAIVCLVLGWLGTLFGNMIKAAISRQREFLADASAVQFTRNDQGIAGALKKIGSNVQGSTLNTKASDEMSHMMFGQSKLSGFSGLFATHPPLDERIRRIEPNWDGSYAQHSHAQNTAFDNEQVSGFAVGGGSPASQSASPSEQLSETGQQLISQLPPELVDIAREPYSARFIAFALIFDGSDIQREMIKSYVPLASQSTLLPWLDYDLPLHLRFPLLELALPALKSLSEAQKISLCKVLRELSETDNQYSLAEWCVINLLEKQLLASFGFIKQHKSLKQLEESVFWLLRELAWVSHSQADKAQRAYHCALAHLGFPEVKLEPANSNWHLSRAALELLLQLKPNDRRMFVKACRLAIESDGEITVAEGEIYRVIACFLEVPEPPLTISG | failed |
| MSKRVLMVVTNHTTITDDHKTGLWLEEFAVPYLVFQEKGYDVKVASIQGGEVPLDPRSINEKDPSWAEAEAALKHTARLSKDDAHGFDAIFLPGGHGTMFDFPDNETLQYVLQQFAEDGRIIAAVCHGPSGLVNATYKDGTPIVKGKTVTSFTDEEEREVGLDVHMPFLLESTLRLRGANFVRGGKWTDFSVRDGNLITGQNPQSSRSTAEKVVAALEERE | not failed |
| MKIESLDLPDEIKRFYENSGILELYPPQAEAVEKGLLEGKNLLAAIPTASGKTLLAELAMLKSVLNGGKALYIVPLRALASEKFRRFQEFSVLGMRVGISTGDYDRRDEGLGINDIIVATSEKTDSLLRNETAWMQEISVVVADEVHLIDSPDRGPTLEITLSKLRRMNPSCQVLALSATVGNADELAAWLDAELVLSEWRPTDLMEGVFYNGIFYCKDKEKPVGQPTKDEAVNLVLDTIKEGGQCLVFESSRKNCMGFAKKAVSAVKKTLSNEDRETLAGIADEIIENSETDVSSVLATCVRSGTAFHHAGLTTPLRELVENGFREGRIKIISSTPTLAAGLNLPARRVIIRSYRRYSSDSGMQPIPVLEYKQMAGRAGRPRLDPYGEAVLLAKSYEEFVFLFEKYIEAGAEDIWSKLGTENALRTHILSTISNGFARTREELMDFLEATFFAFQYSNFGLSAVVDECLDFLRREGMLEKDPDALVSTVFGKLVSRLYIDPLSAALIAKGLREAGTLTELTLLHLICSTPDMRLMYMRSQDYQEVNDYVMAHAGEFSKVPNPFNIAEYEWFLGEVKTSLLLMDWIHEKPENEICLKFGIGEGDIHATADIAEWIMHVTAQLAGLLDLKGAKEASELEKRIRYGAAPELMDLLDIRSVGRVRARKLYEAGFKSTAELAAASPEHIAVLVGPKITERIFKQIGRREAVSEFSDIEPLEKGSSDGQRTISDY | failed |
| MGVVFAFGFYLIFIKLTGLKLMDYFPRFKENRLKMIFSILSVILAFLINWLIMKNFSFLIEIIHPIASVWIFIILIYLLLRFLFLKRVPLSNYEKKFMGNMSAIAIFLELLKIIEYVDEHNIASPITVALVFFIPVVVFFNCKYFYEMELSS | failed |
| MAAPLCVKVEFGGGAELLFDGVKKHQVALPGQEEPWDIRNLLVWIKKNLLKERPELFIQGDSVRPGILVLINDADWELLGELDYQLQDQDSILFISTLHGG | not failed |
| MDRNEIGLNAGKVWQLLSNNEKWGYGTLKRKSGLKDKELGAALGWLSRENKIEFDQCDEELYVYLCVNVYIG | failed |
| RKKEDKYDFRALGLAIKEARKKQGLTREQVGAMIEIDPRYLTNIENKGQHPSLQVLYDLVSLLNVSVDEFFLPASSQVKSTKRRQLENKIDNF | failed |
| MTTDAPALLPALQARVRETAHARTPAGCPCGAATLADRPDATVVRHAGTVAKAHAADADPAELSLRVTAAARLPGVLLPPLAPAPVDLHGRLVTYWPYGTPVDPEDPDAAPWEAAATLLARLHRTPVPAALPPMRGPAKAARAAARLSDTARDHPATAPVLAAWAALPAWARGEAAMPGPAALCHGDLHLGQLIRHPAPDGPWLLIDVDDLGTGVPAWDLARPAAWYACGLLPPEEWHRFLTAYRAAGGPAVPAEGDPWPALDVPARALTAQTAARAVAKAVLAGRALDEVERSLVDACARMASVRPADPRG | failed |
| MAETNTATSAVNAQITDAVTQVNTKVVGETPAMAMGNLLMSTSHALSNTAHNATAAQQQGQITMQAATVQGVNSLMSVSSAVIGRSSEEVIEKG | failed |
| MKLMVNHQTHYHYSEVARNSIQYIKMIPQSSPHQLVHYWDISVPGERIMKRDAFDNLWITSSQRFDYQNLTIMAQGIVELNLQNSGCHDSVVLPHVFLQPTPATLCDAEMLNFALEIVKTKDVSSLINLSQKILERITYSPYSTNVQTTAIDAFYAAQGVCQDHAHVMIAMCRALNLPARYVSGYLYDYNSPHLASHAWAEVYVDHEWHCFDVSNQIFVPKTHIYVAIGRDYFDVAPIRGIRENGGIEEMISTVQVLAC | failed |
| MILIRNVRLVDARGERGPADVLIGEGRILSLEGGEAKQVVDGTGCFLAPGFLDLHAHLREPGEEVKEDLFSGLLAAVRGGYTDLVSMPNTKPPVDTPEAVRALKEKAKALGLARLHPAAALTEKQEGKTLTPAGLLREAGAVLLTDDGRTNEDAGVLAAGLLMAAPLGLPVAVHAEDAGLRRNGVMNDGPLADLLGLPGNPPEAEAARIARDLEVLRYALRRSPATPRLHVQHLSTKRGLELVREAKRAGLPVTAEATPHHLTLTEEALRTFDPLFKVAPPLRGEEDREALLEGLLDGTLDAIATDHAPHTLAEKEKDLLRAPFGIPSLEVAFPLLYTELHLKRGFPLQRLVELFTDGPRRVLGLPPLHLEEGAEASLVLLSPKERPVDPSAFASKARYSPWAGWVLGGWPVLTLVAGRIVHEALK | not failed |
| MAEPGGHEGPASTQRAKVCETHTAMVFFVEDRVYKRKKPVDLGFLDYTTRSSRRAVCEREIELNRRFAPDVYLGLGELRTPGEQEAEPLVVMRRMPDDRRLSHLVRTGAPVADDLRAVARHLAAWHSAAPRGPAIAEQGTRDALAARWEASFTQVDVLAAKGPTRDEAGEVERLVRRYLAGRKPLFGLRIEQGRVLDGHGDLLADDVFCLGDGPRILDCLEFDDALRYVDGLDDAAFLAMDLESLGAPESAAFFLAQYGEYSGDPAPPSLWHHYVAYRAFVRAKVSLIQARQGAPGAHATARRLVRMALRHLRASAVGLTLVAGLPGTGKSTLSGALADRLGAVLLSSDRLRKEMAGLSPQQTASADYGEGLYTPEWTARTYAELLDRAAALLALGESVVLDATWIDSAQREAARHTAESAGADLVALHCHVPDDVTAARLSTRAPGASDADLGVAEAMAAEEQPWSGAVGVDTGGSLEAAVGQALAAVRPWGSDQAKVFRRPYMEPDLEHHHHHH | failed |
| MSINPYVTIFLLLAATSSQALSISLADPCTVSDFPALCRSTIKGQTNVNAATDVAIKELMKRTRQAKKIAEKELKRDGGVATCLSNFNSAFDNLEKALTNIKENDGFSLNINLSAALTDYDTCSDSMKETKEVNVIYKSAGVLYRMADNCLALSTLVKH | failed |
| MKIRDLLKARRGPLFSFEFFPPKDPEGEEALFRTLEELKAFRPAFVSITYGAMGSTRERSVAWAQRIQSLGLNPLAHLTVAGQSRKEVAEVLHRFVESGVENLLALRGDPPRGERVFRPHPEGFRYAAELVALIRERYGDRVSVGGAAYPEGHPESESLEADLRHFKAKVEAGLDFAITQLFFNNAHYFGFLERARRAGIGIPILPGIMPVTSYRQLRRFTEVCGASIPGPLLAKLERHQDDPKAVLEIGVEHAVRQVAELLEAGVEGVHFYTLNKSPATRMVLERLGLRPASGQP | not failed |
